Patent EP4748858A1 (Nanjing Probio Biotech Co., Ltd., dated 2026)

How the values were obtained:
[1] = target: T1, recombinant protein of the human CD7 extracellular domain, CD7-His (human, UniProt P09564 26-180); test: SPR Biacore T200, antibody captured via Fc, human CD7 as analyte
T1 construct: range 25-645; also called human CD7-His protein; recombinant human CD7; not shown: His protein tag
T1 sequence (looked up): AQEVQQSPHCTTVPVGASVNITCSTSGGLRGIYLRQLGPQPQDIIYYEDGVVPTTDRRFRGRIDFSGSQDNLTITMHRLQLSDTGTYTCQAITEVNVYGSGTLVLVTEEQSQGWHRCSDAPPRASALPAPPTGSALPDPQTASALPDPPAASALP

[2] = target: T2, human CD7 expressed on cells (human, UniProt P09564 26-240); test: cell-based or functional assay
T2 sequence (looked up): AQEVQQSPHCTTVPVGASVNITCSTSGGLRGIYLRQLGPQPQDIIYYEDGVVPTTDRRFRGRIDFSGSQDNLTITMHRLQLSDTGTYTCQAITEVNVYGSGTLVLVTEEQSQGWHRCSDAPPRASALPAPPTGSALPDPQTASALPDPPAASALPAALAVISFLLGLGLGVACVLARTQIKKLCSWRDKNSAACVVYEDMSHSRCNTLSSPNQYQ

[3] = target: T2, human CD7 expressed on cells; test: cell-based or functional assay; remark: listed apart in the source

B1: AHP19484-VHH3 (Fc fusion)
chain: QVQLVESGGGLVKPGGSLRLSCAASGSSFHFAFMGWYRQAPGKQRELVADISPGNSTNYADPVKGRFTISRDNAKNSLYLQMNSLRAEDTAVYFCRDLRSWGAWGQGTLVTVSS
notes: Humanized VHH of AHP19484 expressed as fusion to human IgG1 Fc; not shown: human IgG1 Fc of expression vector pcDNA3.4-Fc (Human IgG1)
[1]
  Kd: 0.118 nM
  koff: 5.19e-05 s⁻¹
  kon: 440000 M⁻¹ s⁻¹

B2: AHP19485-VHH1 (Fc fusion)
chain: EVQLVESGGGLVQPGGSLRLSCAASERIFSIHAMGWYRQAPGKQRELVSSITIGGSTHYADSVKGRFTISRDNSKNTLYLQMNSLRAEDTAVYYCNSMLLAGTVGGSWGQGTLVTVSS
notes: Humanized VHH of AHP19485 expressed as fusion to human IgG1 Fc; not shown: human IgG1 Fc of expression vector pcDNA3.4-Fc (Human IgG1)
[1]
  Kd: 0.131 nM
  koff: 3.18e-05 s⁻¹
  kon: 243000 M⁻¹ s⁻¹

B3: VHH6 CAR (other)
chain: DVQLQESGGGLVQAGGSLRLSCAVSGYPYSSYCMGWFRQAPGKEREGVAAIDSDGRTRYADSVKGRFTISQDNAKNTLYLQMNRMKPEDTAMYYCAARFGPMGCVDLSTLSFGHWGQGTQVTVSITGGGGSGGGGSGGGGSGGGGSDVQLQESGGGLVQAGGSLRLSCAVSGYPYSSYCMGWFRQAPGKEREGVAAIDSDGRTRYADSVKGRFTISQDNAKNTLYLQMNRMKPEDTAMYYCAARFGPMGCVDLSTLSFGHWGQGTQVTVSITAAADYKDDDDKIEVMYPPPYLDNEKSNGTIIHVKGKHLCPSPLFPGPSKPFWVLVVVGGVLACYSLLVTVAFIIFWVRSKRSRLLHSDYMNMTPRRPGPTRKHYQPYAPPRDFAAYRSRVKFSRSADAPAYQQGQNQLYNELNLGRREEYDVLDKRRGRDPEMGGKPRRKNPQEGLYNELQKDKMAEAYSEIGMKGERRRGKGHDGLYQGLSTATKDTYDALHMQALPPR
[2]
  % Cytotoxicity of CAR-T cells against Jurkat/Luc, E/T = 1 : 1: 43.4%
  % Cytotoxicity of CAR-T cells against Jurkat/Luc, E/T = 5 : 1: 67.2%
  % Cytotoxicity of CAR-T cells against Jurkat/Luc, E/T = 20 : 1: 93.6%
[3]
  % Cytotoxicity of CAR-T cells against CCRF-CEM/Luc, E/T = 1 : 1: 74.5%
  % Cytotoxicity of CAR-T cells against CCRF-CEM/Luc, E/T = 5 : 1: 51.2%
  % Cytotoxicity of CAR-T cells against CCRF-CEM/Luc, E/T = 20 : 1: 71.1%

B4: AHP19509-VHH1 (Fc fusion)
chain: EVQLVESGGGLVQPGGSLRLSCAASGGTFNRYTMGWFRQAPGKEREFVSAISWSGGSTDYADSVKGRFTISRDNSKNTLYLQMNSLRAEDTAVYYCDTDRMPYRPVAAGILSWEANWGQGTLVTVSS
notes: Humanized VHH of AHP19509 expressed as fusion to human IgG1 Fc; not shown: human IgG1 Fc of expression vector pcDNA3.4-Fc (Human IgG1)
[1]
  Kd: 0.1 nM
  koff: 3.04e-05 s⁻¹
  kon: 304000 M⁻¹ s⁻¹

B5: AHP19484-VHH3 CAR (other)
chain: QVQLVESGGGLVKPGGSLRLSCAASGSSFHFAFMGWYRQAPGKQRELVADISPGNSTNYADPVKGRFTISRDNAKNSLYLQMNSLRAEDTAVYFCRDLRSWGAWGQGTLVTVSSGGGSGGGSGGGSGGGSQVQLVESGGGLVKPGGSLRLSCAASGSSFHFAFMGWYRQAPGKQRELVADISPGNSTNYADPVKGRFTISRDNAKNSLYLQMNSLRAEDTAVYFCRDLRSWGAWGQGTLVTVSSAAADYKDDDDKIEVMYPPPYLDNEKSNGTIIHVKGKHLCPSPLFPGPSKPFWVLVVVGGVLACYSLLVTVAFIIFWVRSKRSRLLHSDYMNMTPRRPGPTRKHYQPYAPPRDFAAYRSRVKFSRSADAPAYQQGQNQLYNELNLGRREEYDVLDKRRGRDPEMGGKPRRKNPQEGLYNELQKDKMAEAYSEIGMKGERRRGKGHDGLYQGLSTATKDTYDALHMQALPPR
[2]
  % Cytotoxicity of CAR-T cells against Jurkat/Luc, E/T = 1 : 1: 60.5%
  % Cytotoxicity of CAR-T cells against Jurkat/Luc, E/T = 5 : 1: 94.5%
  % Cytotoxicity of CAR-T cells against Jurkat/Luc, E/T = 20 : 1: 100%
[3]
  % Cytotoxicity of CAR-T cells against CCRF-CEM/Luc, E/T = 1 : 1: 69.7%
  % Cytotoxicity of CAR-T cells against CCRF-CEM/Luc, E/T = 5 : 1: 64.9%
  % Cytotoxicity of CAR-T cells against CCRF-CEM/Luc, E/T = 20 : 1: 94.1%
